Measured values reported in patent publication US20240034774A1 (Gilead, published 2024).
Substitutions are numbered along the chain they refer to.

B1: 1.1.9-1 (antibody, human IgG1, kappa)
heavy: QVQLLQSGAAVTKPGASVRVSCEASGYNIRDYFIHWWRQAPGQGLQWVGWINPKTGQPNNPRQFQGRVSLTRHASWDFDTFSFYMDLKALRSDDTAVYFCARQRSDYWDFDVWGSGTQVTVSSASTKGPSVFPLAPSSKSTSGGTAALGCLVKDYFPEPVTVSWNSGALTSGVHTFPAVLQSSGLYSLSSVVTVPSSSLGTQTYICNVNHKPSNTKVDKKVEPKSCDKTHTCPPCPAPELLAGPDVFLFPPKPKDTLMISRTPEVTCVVVDVSHEDPEVKFNWYVDGVEVHNAKTKPREEQYNSTYRVVSVLTVLHQDWLNGKEYKCKVSNKALPLPEEKTISKAKGQPREPQVYTLPPSREEMTKNQVSLTCLVKGFYPSDIAVEWESNGQPENNYKTTPPVLDSDGSFFLYSKLTVDKSRWQQGNVFSCSVLHEALHSHYTQKSLSLSPGK
light: DIQMTQSPSSLSASVGDTVTITCQANGYLNWYQQRRGKAPKLLIYDGSKLETGVPSRFSGRRWGQEYNLTINNLQPEDIATYFCQVYEFVVPGTRLDLKRTVAAPSVFIFPPSDEQLKSGTASVVCLLNNFYPREAKVQWKVDNALQSGNSQESVTEQDSKDSTYSLSSTLTLSKADYEKHKVYACEVTHQGLSSPVTKSFNRGEC
B2: 1.1.24-1 (antibody, human IgG1, kappa)
heavy: B1 heavy
light: B1 light with T52R, L96V
B3: 1.1.31-1 (antibody, human IgG1, kappa)
heavy: B1 heavy
light: B1 light with T52R, N68T, N72S, N73S, R95N
B4: 1.1.29-1 (antibody, human IgG1, kappa)
heavy: B1 heavy
light: B1 light with T52R, V91G, R95N, L96V, L98I
B5: 1.1.22-1 (antibody, human IgG1, kappa)
heavy: B1 heavy
light: B1 light with T52R, V91S, R95N
B6: 1.1.28-1 (antibody, human IgG1, kappa)
heavy: B1 heavy
light: B1 light with T52R, R95N, L96V, L98I
B7: 1.1.15-1 (antibody, human IgG1, kappa)
heavy: B1 heavy
light: B1 light with T52R, V90F
B8: 1.1.13-1 (antibody, human IgG1, kappa)
heavy: B1 heavy
light: B1 light with T52R, R61S, N68T, N72S, N73S
B9: 1.1.25-1 (antibody, human IgG1, kappa)
heavy: B1 heavy
light: B1 light with T52R, R95N, L96V
B10: 1.1.10-1 (antibody, human IgG1, kappa)
heavy: B1 heavy
light: B1 light with T52R, N68T
B11: 1.1.27-1 (antibody, human IgG1, kappa)
heavy: B1 heavy
light: B1 light with T52R, L96V, L98I
B12: 1.1.11-1 (antibody, human IgG1, kappa)
heavy: B1 heavy
light: B1 light with T52R, R61S, N68T
B13: 1.1.21-1 (antibody, human IgG1, kappa)
heavy: B1 heavy
light: B1 light with T52R, V91G, R95N
B14: 1.1.18-1 (antibody, human IgG1, kappa)
heavy: B1 heavy
light: B1 light with T52R, V91S
B15: 1.1.23-1 (antibody, human IgG1, kappa)
heavy: B1 heavy
light: B1 light with T52R, V91T, R95N
B16: 1.1.30-1 (antibody, human IgG1, kappa)
heavy: B1 heavy
light: B1 light with T52R, V91T, R95N, L96V, L98I
B17: 1.1.19-1 (antibody, human IgG1, kappa)
heavy: B1 heavy
light: B1 light with T52R, V91T
B18: 1.1.17-1 (antibody, human IgG1, kappa)
heavy: B1 heavy
light: B1 light with T52R, V90F, V91G
B19: 1.1.12-1 (antibody, human IgG1, kappa)
heavy: B1 heavy
light: B1 light with T52R, N72S, N73S
B20: 1.1.26-1 (antibody, human IgG1, kappa)
heavy: B1 heavy
light: B1 light with T52R, L98I
B21: 1.1.16-1 (antibody, human IgG1, kappa)
heavy: B1 heavy
light: B1 light with T52R, V91G
B22: 1.1.20-1 (antibody, human IgG1, kappa)
heavy: B1 heavy
light: B1 light with T52R, R95N

What was measured:
gp120 SHIV SF162 P3 = gp120 SHIV SF162 P3 (SHIV SF162 P3); assay: single-point ELISA at EC50 conc. of A-1
gp120 Bal = gp120 Bal (HIV (Bal)); assay: single-point ELISA at EC50 conc. of A-1
gp120 CAAN = gp120 CAAN (HIV (CAAN)); assay: single-point ELISA at EC50 conc. of A-1
BSA = BSA (UniProt P02769 25-607); assay: single-point ELISA, BSA control

Row | Binder | ELISA A450 (gp120 SHIV SF162 P3) | ELISA A450 (gp120 Bal) | ELISA A450 (gp120 CAAN) | ELISA A450 (BSA)
1 | B1 | 1.09 A450 | 0.98 A450 | 0.93 A450 | 0.07 A450
2 | B2 | 0.97 A450 | 0.88 A450 | 0.98 A450 | 0.06 A450
3 | B3 | 0.87 A450 | 0.87 A450 | 0.96 A450 | 0.06 A450
4 | B4 | 0.9 A450 | 0.91 A450 | 1.01 A450 | 0.06 A450
5 | B5 | 1.04 A450 | 0.88 A450 | 1.02 A450 | 0.06 A450
6 | B6 | 1.09 A450 | 0.98 A450 | 0.93 A450 | 0.06 A450
7 | B7 | 0.79 A450 | 0.93 A450 | 0.79 A450 | 0.06 A450
8 | B8 | 0.97 A450 | 0.94 A450 | 1.11 A450 | 0.06 A450
9 | B9 | 1.01 A450 | 0.9 A450 | 0.92 A450 | 0.07 A450
10 | B10 | 1.02 A450 | 0.94 A450 | 1.1 A450 | 0.06 A450
11 | B11 | 1.1 A450 | 0.97 A450 | 0.99 A450 | 0.06 A450
12 | B12 | 0.93 A450 | 0.92 A450 | 1.03 A450 | 0.06 A450
13 | B13 | 1.03 A450 | 0.98 A450 | 0.99 A450 | 0.06 A450
14 | B14 | 0.94 A450 | 0.92 A450 | 0.92 A450 | 0.06 A450
15 | B15 | 1.07 A450 | 0.9 A450 | 0.95 A450 | 0.06 A450
16 | B16 | 0.98 A450 | 0.9 A450 | 0.86 A450 | 0.06 A450
17 | B17 | 1.12 A450 | 1.03 A450 | 1.05 A450 | 0.06 A450
18 | B18 | 1.07 A450 | 1.02 A450 | 0.9 A450 | 0.06 A450
19 | B19 | 1.13 A450 | 1.05 A450 | 1.02 A450 | 0.06 A450
20 | B20 | 1.09 A450 | 0.96 A450 | 1.07 A450 | 0.06 A450
21 | B21 | 1.05 A450 | 1.06 A450 | 0.99 A450 | 0.06 A450
22 | B22 | 1.01 A450 | 0.94 A450 | 0.95 A450 | 0.07 A450
